According to US20210340225A1 (HARBOUR ANTIBODIES, published 2021):

B1: 49F1 VH41 VL42-4 (antibody, V domains shown)
VH: QVQLVQSGAEVKKPGSSVKVSCKASGGTFSSYAINWVRQAPGQGLEWMGGIIPIFGTANSAQKFQGRVTITADKSTSTAYMELSSLRSEDTAVYYCAREAGIPVAGLADWGQGTLVTVSS
VL: DIQMTQSPSTLSASVGDRVTITCRASQSISSYLNWYQQKPGKAPKLLIYKASSLESGVPSRFSGSGSGTEFTLTISSLQPDDFGTYYCQQYNSYYTFGQGTKLEIK
B2: 47D11 fully human IgG1 monoclonal antibody (antibody, V domains shown)
VH: QVQLQESGPGLVKPSETLSLTCSVSGGSISSHYWSWIRQPPGKGLEWIGYIYYSGSTNHNPSLKSRVTISVDTSKNQFSLKLSSVTAADTAVYYCARGVLLWFGEPIFEIWGQGTMVTVSS
VL: EIVMTQSPATLSVSPGERATLSCRASQSVSSSLAWYQQKPGQAPRLLIYGASTRAPGIPARFSGSGSGTEFTLTISSLQSEDFAVYYCQQYNNWPLTFGGGTKVEIKR

How the values were obtained:
[1] = biological target: T1, SARS-CoV spike [change] receptor binding domain (SARS-[change]), residues 325-533, Strep-tagged (SARS-CoV, UniProt P59594 325-533); test: ELISA, serial dilution of supernatant after transfection
[2] = biological target: T2, SARS-CoV-2 spike S1B receptor binding domain (SARS2-S1B), residues 329-538, Strep-tagged (SARS-CoV-2 (strain Wuhan-Hu-1), UniProt P0DTC2 329-538); test: as above
[3] = biological target: T1, SARS-CoV spike [change] receptor …; test: ELISA, antigen coated at equimolar amounts, mAb titrated
[4] = biological target: T3, SARS-CoV-2 spike ectodomain (SARS2-Secto), residues 1-1,213, with C-terminal trimerization motif and Strep-tag (SARS-CoV-2 (strain Wuhan-Hu-1), UniProt P0DTC2 14-1213); test: as above
[5] = biological target: T2, SARS-CoV-2 spike S1B receptor binding …; test: ELISA, antigen coated at equimolar amounts, mAb titrated; ELISA EC50, not BLI
[6] = biological target: T1, SARS-CoV spike [change] receptor …
[7] = biological target: T3, SARS-CoV-2 spike ectodomain …
[8] = biological target: T2, SARS-CoV-2 spike S1B receptor binding …
[9] = biological target: T1, SARS-CoV spike [change] receptor …; remark: listed apart in the source
[10] = biological target: T2, SARS-CoV-2 spike S1B receptor binding …; remark: listed apart in the source
[11] = biological target: SARS-S with 28-a.a. cytoplasmic tail truncation, on pseudotyped VSV particles (SARS-CoV, UniProt P59594 14-1227); test: cell-based or functional assay
[12] = biological target: WIV16-S with 19-a.a. cytoplasmic tail truncation, on pseudotyped VSV particles (bat SARS-like coronavirus WIV16); test: cell-based or functional assay
[13] = biological target: SARS2-S with 18-a.a. cytoplasmic tail truncation, on pseudotyped VSV particles (SARS-CoV-2, UniProt P0DTC2 14-1255); test: cell-based or functional assay
[14] = biological target: T1, SARS-CoV spike [change] receptor …; remark: listed apart in the source
[15] = biological target: T3, SARS-CoV-2 spike ectodomain …; remark: listed apart in the source
[16] = biological target: T2, SARS-CoV-2 spike S1B receptor binding …; remark: listed apart in the source

| Binder | binding result [1] | binding result [2] | EC50 [3] | EC50 [4] | EC50 [5] | Kd [6] | Kd [7] | Kd [8] | EC50 (read off the curve) [9] | EC50 (read off the curve) [10] | IC50, infection of VeroE6 cells with SARS-S pseudotyped VSV (luciferase) [11] | IC50, neutralization of WIV16-S pseudotyped VSV [12] | IC50, infection of VeroE6 cells with SARS2-S pseudotyped VSV (luciferase) [13] | koff [14] | kon [14] | koff [15] | kon [15] | koff [16] | kon [16] |
| --- | --- | --- | --- | --- | --- | --- | --- | --- | --- | --- | --- | --- | --- | --- | --- | --- | --- | --- | --- |
| B1 | no binding (tested: undiluted supernatant) | no binding (tested: undiluted supernatant) |  |  |  |  |  |  |  |  |  |  |  |  |  |  |  |  |  |
| B2 |  |  | 0.02 µg/mL | 0.15 µg/mL | 0.03 µg/mL | 16.1 nM | 10.8 nM | 9.6 nM | ~0.1 µg/mL | ~0.1 µg/mL | 0.06 µg/mL | 0.165 µg/mL | 0.08 µg/mL | 0.00021 s⁻¹ | 20000 M⁻¹ s⁻¹ | 9.85e-05 s⁻¹ | 9770 M⁻¹ s⁻¹ | 0.000137 s⁻¹ | 15100 M⁻¹ s⁻¹ |
